Laboratory results: patent US20220298237A1 (KEIO UNIVERSITY, published 2022)

Key:
[1] = biological target: T1, mouse aquaporin 3 (AQP3) on cells (mouse, UniProt Q8R2N1 1-292); test: fluorescence binding assay on mouse macrophage cells, 0.1, 1 and 10 µg/mL (FIG. 4)
T1 construct: whole, on cells; Water channel membrane protein; also called mouse AQP3; AQP3 on PAM212 cells
T1 sequence (looked up): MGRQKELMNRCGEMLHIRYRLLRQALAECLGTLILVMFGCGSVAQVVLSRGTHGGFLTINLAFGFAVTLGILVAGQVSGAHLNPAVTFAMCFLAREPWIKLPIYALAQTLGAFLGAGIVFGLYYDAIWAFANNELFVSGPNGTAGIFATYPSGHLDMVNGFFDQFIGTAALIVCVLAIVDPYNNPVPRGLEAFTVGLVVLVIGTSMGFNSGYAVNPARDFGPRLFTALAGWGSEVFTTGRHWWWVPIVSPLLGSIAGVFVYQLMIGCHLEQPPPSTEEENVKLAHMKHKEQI
Procedure: (§1) PAM212 and macrophage cells were reacted with each anti AQP3 antibody (0.1, 1, or 10 μg/mL) at 4° C. for 1 hour. After washing the cells, a fluorescent-labeled secondary antibody was added and the reaction was allowed to occur additionally for 1 hour (4° C.). By measuring the fluorescence intensity, the binding property of each anti AQP3 antibody to cells was obtained.
The testing was also carried out using solvent (Veh) or a non-specific IgG (IgG) controls. In FIG. 4, the vertical axis represents fluorescence intensity, and the mean fluorescence intensity of each sample is represented by bar height together with standard error.

[2] = biological target: T2, oligopeptide ATYPSGHLDM (SEQ ID NO: 1) (human and mouse); test: ELISA on peptide SEQ ID NO:1, IgG, 50% binding response (FIG. 16A)
T2 construct: Synthetic peptide; positions 148 to 157 of the human AQP3 polypeptide, identical in mouse; also called peptide used for immunization; oligopeptide 5
T2 peptide: ATYPSGHLDM

[3] = biological target: T3, mouse AQP3 in lysate of HEK293T cells overexpressing mouse AQP3 and a myc-biotinylated tag (mouse, UniProt Q8R2N1 1-292); test: ELISA on lysate of HEK293T cells overexpressing mouse AQP3 (FIG. 3)
T3 construct: Cell lysate used in ELISA; also called AQP3 containing cell lysate; not shown: myc-biotinylated tag
T3 sequence (looked up): T1 sequence (looked up)
From the text: Cell lysate from HEK293T cells overexpressing mouse AQP3 and a myc-biotinylated tag was used in an ELISA assay to measure the binding of antibodies A, B, C, D, E, F, G, H, J, and K to AQP3. Cell lysate from HEK293T cells overexpressing the myc-biotinylated tag but not AQP3 was used as control. […] C. Antibody binding to AQP3 expressing cells

[4] = biological target: T4, oligopeptide SGPNGTAGIFATYPS (SEQ ID NO: 94); test: ELISA on coated peptide
T4 construct: Synthetic peptide, part of Loop C of AQP3
T4 peptide: SGPNGTAGIFATYPS
Procedure: (§2) To determine the important amino acid residues of an epitope in Loop C involved in binding to specific AQP3 antibody clones, peptides of varying lengths were produced. The sequences of these peptides are shown in column 2 of Table 4.
(§3) The various peptides and AQP3 antibody clones were subjected to ELISA binding analyses. […] The microtiter wells (Costar 2690) were coated with 50 μL of each peptide at 4° C. overnight. The wells were washed 3 times with PBS and blocked with 100 μL of 1% BSA/PBS at 37° C. for 1 hour. Each antibody was adjusted to 1 μg/mL in 1% SBA/PBS as above then serially diluted 1:5 in 1% BSA/PBS. The blocker was discarded and the wells were incubated with 50 μL of antibodies at 37° C. for 1.5 hours. The wells were washed 3 times with PBS and mouse antibodies were detected with 50 μL of goat anti-mouse IgG (H+L) HRP conjugate (ThermoFisher 31438) (1:5,000 in 1% BSA/PBS) and rabbit antibodies were detected with 50 μL of goat anti-rabbit IgG (H+L) HRP conjugate (ThermoFisher 31462) (1:5,000 in 1% BSA/PBS) at 37° C. for 1 hour. The wells were washed 3 times with PBS and developed with 50 μL of HRP substrate at RT for 5 min then stopped with 50 μL of 2N sulfuric acid and binding was measured with a plate reader.

[5] = biological target: T5, oligopeptide SGHLDM (SEQ ID NO: 99); test: ELISA on coated peptide
T5 construct: Synthetic peptide, part of Loop C of AQP3
T5 peptide: SGHLDM
Procedure: as §2, §3

[6] = biological target: T6, oligopeptide ATYPSGHL (SEQ ID NO: 102); test: ELISA on coated peptide
T6 construct: Synthetic peptide, part of Loop C of AQP3
T6 peptide: ATYPSGHL
Procedure: as §2, §3

[7] = biological target: T7, oligopeptide ATYPSG (SEQ ID NO: 104); test: ELISA on coated peptide
T7 construct: Synthetic peptide, part of Loop C of AQP3
T7 peptide: ATYPSG
Procedure: as §2, §3

[8] = biological target: T8, oligopeptide IFATYPSGHLDM (SEQ ID NO: 108); test: ELISA on coated peptide
T8 construct: Synthetic peptide, part of Loop C of AQP3
T8 peptide: IFATYPSGHLDM
Procedure: as §2, §3

[9] = biological target: T9, oligopeptide YPSGHLDM (SEQ ID NO: 97); test: ELISA on coated peptide
T9 construct: Synthetic peptide, part of Loop C of AQP3; first diluted in DMSO
T9 peptide: YPSGHLDM
Procedure: as §2, §3

[10] = biological target: T10, oligopeptide TYPSGHLDM (SEQ ID NO: 96); test: ELISA on coated peptide
T10 construct: Synthetic peptide, part of Loop C of AQP3
T10 peptide: TYPSGHLDM
Procedure: as §2, §3

[11] = biological target: T11, oligopeptide GHLDM (SEQ ID NO: 100); test: ELISA on coated peptide
T11 construct: Synthetic peptide, part of Loop C of AQP3
T11 peptide: GHLDM
Procedure: as §2, §3

[12] = biological target: T12, oligopeptide ATYPSGH (SEQ ID NO: 103); test: ELISA on coated peptide
T12 construct: Synthetic peptide, part of Loop C of AQP3
T12 peptide: ATYPSGH
Procedure: as §2, §3

[13] = biological target: T13, oligopeptide FATYPSGHLDM (SEQ ID NO: 109); test: ELISA on coated peptide
T13 construct: Synthetic peptide, part of Loop C of AQP3
T13 peptide: FATYPSGHLDM
Procedure: as §2, §3

[14] = biological target: T14, oligopeptide GIFATYPSGHLDM (SEQ ID NO: 107); test: ELISA on coated peptide
T14 construct: Synthetic peptide, part of Loop C of AQP3
T14 peptide: GIFATYPSGHLDM
Procedure: as §2, §3

[15] = biological target: T15, oligopeptide PSGHLDM (SEQ ID NO: 98); test: ELISA on coated peptide
T15 construct: Synthetic peptide, part of Loop C of AQP3
T15 peptide: PSGHLDM
Procedure: as §2, §3

[16] = biological target: T2, oligopeptide ATYPSGHLDM (SEQ ID NO: 1); test: ELISA on coated peptide
Procedure: as §2, §3

[17] = biological target: T16, oligopeptide ATYPSGHLD (SEQ ID NO: 101); test: ELISA on coated peptide
T16 construct: Synthetic peptide, part of Loop C of AQP3
T16 peptide: ATYPSGHLD
Procedure: as §2, §3

[18] = biological target: T17, oligopeptide AGIFATYPSGHLDM (SEQ ID NO: 106); test: ELISA on coated peptide
T17 construct: Synthetic peptide, part of Loop C of AQP3
T17 peptide: AGIFATYPSGHLDM
Procedure: as §2, §3

[19] = biological target: T18, oligopeptide TAGIFATYPSGHLDM (SEQ ID NO: 105); test: ELISA on coated peptide
T18 construct: Synthetic peptide, part of Loop C of AQP3
T18 peptide: TAGIFATYPSGHLDM
Procedure: as §2, §3

[20] = biological target: T19, human aquaporin 3 (AQP3) on cells (human, UniProt Q92482 1-292); test: fluorescence binding assay on HaCaT cells, 10 µg/mL (FIG. 5C)
T19 construct: whole, on cells; Water channel membrane protein; also called human AQP3; AQP3 on HaCaT cells
T19 sequence (looked up): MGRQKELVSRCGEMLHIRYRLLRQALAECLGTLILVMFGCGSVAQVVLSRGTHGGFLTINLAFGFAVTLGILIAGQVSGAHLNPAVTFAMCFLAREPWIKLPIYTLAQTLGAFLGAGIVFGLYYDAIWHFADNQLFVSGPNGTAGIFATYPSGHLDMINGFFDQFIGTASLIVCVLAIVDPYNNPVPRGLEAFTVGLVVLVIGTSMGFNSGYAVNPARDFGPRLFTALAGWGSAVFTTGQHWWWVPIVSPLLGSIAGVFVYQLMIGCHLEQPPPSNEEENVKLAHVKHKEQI

[21] = biological target: T19, human aquaporin 3 (AQP3) on cells; test: flow cytometry on HaCaT cells, 10 µg/mL (FIG. 6A)
Procedure: HaCaT cells were treated with Cell Dissociation Buffer for 30 minutes at 37° C., and then dislodged and collected. Then, the cells were reacted with 10 μg/mL anti AQP3 antibody at 4° C. for 1 hour. After washing the cells, a fluorescent-labeled secondary antibody was added and the reaction was allowed to occur additionally for 1 hour (4° C.). Then, by using a flow cytometer, fluorescence intensity was measured (FIG. 6A to FIG. 6C). FIG. 6A represents the result of a case in which antibody G was used, FIG. 6B represents the result of a case in which antibody H was used, and FIG. 6C represents the result of a case in which antibody J was used. […] The histogram expressed with bold line represents a case in which the anti AQP3 antibody was used while the histogram expressed with thin dotted line represents a case as a control in which the anti AQP3 antibody was not used (addition of non-specific IgG). […] Ratio (%) of the cells included in this range (=cells showing positive staining by anti AQP3 antibody) is also shown in the drawing.

[22] = biological target: T2, oligopeptide ATYPSGHLDM (SEQ ID NO: 1); test: ELISA on the immunogen peptide (FIG. 2)
[23] = biological target: T1, mouse aquaporin 3 (AQP3) on cells; test: fluorescence binding assay on PAM212 cells, 10 µg/mL (FIG. 5B)
Procedure: as §1
The assay was also performed using PAM212 cells and antibodies A, B, C, D, E, F, G, H, and J at a concentration of 10 μg/mL. Binding of antibodies C, D, E, G, and J to PAM212 cells was statistically significant.

[24] = biological target: T1, mouse aquaporin 3 (AQP3) on cells; test: FACS on HEK293 cells stably overexpressing mouse AQP3, 10 µg/mL
Procedure: A FACS assay was also performed using HEK293 cells stably overexpressing mouse AQP3. Cells were incubated with antibody E, H, J, or negative control IgG at a concentration of 10 μg/mL for one hour and then sorted by FACS. Separately, HEK293 cells stably overexpressing human AQP3 were incubated with antibody E at a concentration of 10 μg/mL for one hour and then sorted by FACS.

B1: Antibody J (antibody, mouse IgG2a, kappa, V domains shown)
VH: QVHLQQSGTELVKPGASVKLSCEASGYTFTSYWMHWVKQRPGQGLEWIGNINPSNGGTNYNEKFKSKATLTVDKSSSTAYMQLSSLTSEDSAVYYCARGGIYYGNYDYYAMDYWGQGTSVTVSS
VL: DIVMTQAAPSVPVTPGESVSISCRSSKSLLHSNGNTYLYWFLQRPGQSPQLLIYRVSNLASGVPDRFSGSGSGTAFTLRISRVEAEDVGVYYCMQHLEYPFTFGGGTKLEIKR
notes: also called anti AQP3 antibody J
binding result [1]: binds
EC50 [2]: > 1 µg/mL
binding result [3]: binds
binding signal (plate reader) [4]: 0.043
binding signal (plate reader) [5]: 0.041
binding signal (plate reader) [6]: 0.044
binding signal (plate reader) [7]: 0.044
binding signal (plate reader) [8]: 0.594
binding signal (plate reader) [9]: 0.086
binding signal (plate reader) [10]: 0.26
binding signal (plate reader) [11]: 0.043
binding signal (plate reader) [12]: 0.045
binding signal (plate reader) [13]: 0.513
binding signal (plate reader) [14]: 0.523
binding signal (plate reader) [15]: 0.095
binding signal (plate reader) [16]: 0.391
binding signal (plate reader) [17]: 0.671
binding signal (plate reader) [18]: 0.744
binding signal (plate reader) [19]: 0.723
binding result [20]: binds

B2: Antibody G (antibody, mouse IgG2a, kappa, V domains shown)
VH: QVQLKQSGAELVRPGASVTLSCKASGYTFTDYEMHWVKQTPVHGLEWIGGIDPETGGTAYNQKFKGKAILTADKSSSTAYMELRSLTSEDSAVYYCTRWGAITSFVALRGFAYWGQGTLVTVSS
VL: DIQMTQSPSSLSVSAGEKVTMSCKSSQSLLNSGNQKNYLAWYQQKPGQPPKLLIYGASTRESGVPDRFTGSGSGTDFTLTISSVQAEDLAVYYCQNDHSYPPTFGAGTKLELKR
notes: also called anti AQP3 antibody G; Antiboy G
binding result [3]: binds
binding result [21]: binds
binding result [22]: binds
binding result [23]: binds

B3: Antibody H (antibody, mouse IgG2a, kappa, V domains shown)
VH: EVKLVESGGDLVKPGGSLKLSCAASGFTFSSYGMSWVRQTPDKRLEWVATISRRSIYTYYPDSVQGRFTISRDNAKNTLYLQMSSLKSEDTAMYYCARLSLYDYDGARYTMDYWGQGTSVTVSS
VL: DIKMTQSPKFMSTSVGDRVSITCKASQDVGTAVAWYQQKPGQSPKLLIYWASTRHTGVPDRFTGSGSGTDFTLTISNVQSEDLADYFCQQYSSYHTFGAGTKLEIKR
notes: also called anti AQP3 antibody H
binding result [3]: binds
binding result [22]: binds
binding result [24]: binds
binding result [20]: binds
